One block for each binder: values may come before it.
Columns and labels:
Experiment in all cases: cell-based or functional assay
[1] = target: endogenously produced TGF-beta (isoform not given)
[2] = target: mature human TGF-beta 1 (human, UniProt P01137 279-390)
[3] = target: T1, mature human TGF-beta 3 (human, UniProt P10600 301-412)
T1 sequence: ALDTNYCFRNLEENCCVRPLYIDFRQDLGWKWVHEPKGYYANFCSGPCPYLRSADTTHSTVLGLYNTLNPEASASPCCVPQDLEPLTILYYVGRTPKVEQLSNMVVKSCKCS

[4] = target: T2, mature human TGF-beta 2 (human, UniProt P61812 303-414)
T2 sequence: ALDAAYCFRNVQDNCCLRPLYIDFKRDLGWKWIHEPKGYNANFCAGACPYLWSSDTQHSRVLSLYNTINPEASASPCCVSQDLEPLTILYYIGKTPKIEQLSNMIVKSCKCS

mature human TGF-beta 1, sequence (P01137 279-390 limits assumed): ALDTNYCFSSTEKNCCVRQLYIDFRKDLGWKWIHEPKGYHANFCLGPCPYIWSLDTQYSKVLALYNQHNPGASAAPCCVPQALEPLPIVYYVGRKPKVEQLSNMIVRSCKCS

B1: 4856 rabbit Fab (Fab)
heavy: QSLEESGGRLVTPGTPLTLTCTASGFSLSSYDMSWVRQAPGKGLEWIGIIYGGSGSTWYASWAKGRFTMSKTSTTVDLKITSPTTEDMATYFCARGRDGGAGGSRNGYSLWGQGTLVTVSSGQPKAPSVFPLAPCCGDTPSSTVTLGCLVKGYLPEPVTVTWNSGTLTNGVRTFPSVRQSSGLYSLSSVVSVTSSSQPVTCNVAHPATNTKVDKTV
light: AYDMTQTPASVEVAVGGTVTIKCQASESIYSGLAWYQQTPGQRPKLLIYAASDLASGVPSRFKGSGSGTEYTLTISGVECADAATYYCQQTWTDGGIDNPFGGGTEVVVKRTPVAPTVLIFPPAADQVATGTVTIVCVANKYFPDVTVTWEVDGTTQTTGIENSKTPQNSADCTYNLSSTLTLTSTQYNSHKEYTCKVTQGTTSVVQSFNRGDC
Geomean IC50, BxPC3-HEK-Blue TGF-beta reporter gene co-culture assay [1]: 0.0037 µM

B4: antibody 4856 gL3gH20 Fab (humanised) (Fab)
heavy: EVQLVESGGGLVKPGGSLRLSCAASGFSLSSYDMSWVRQAPGKGLEWISIIYGGSGSTWYASWAKGRFTMSKDSAKNSVYLQMNSLRAEDTAVYYCARGRDAGAGGSRNGYSLWGQGTLVTVSSASTKGPSVFPLAPSSKSTSGGTAALGCLVKDYFPEPVTVSWNSGALTSGVHTFPAVLQSSGLYSLSSVVTVPSSSLGTQTYICNVNHKPSNTKVDKKVEPKSC
light: AYDMTQSPSTLSASVGDRVTITCQASESIYSGLAWYQQKPGKAPKLLIYAASDLASGVPSRFSGSGSGTEYTLTISSLQPDDFATYYCQQTWTDGGIDNPFGGGTKVEIKRTVAAPSVFIFPPSDEQLKSGTASVVCLLNNFYPREAKVQWKVDNALQSGNSQESVTEQDSKDSTYSLSSTLTLSKADYEKHKVYACEVTHQGLSSPVTKSFNRGEC
IC50 geometric mean, BxPC3 and HEK-Blue TGF-beta co-culture assay [1]: 0.00463 µM

B6: 4856 rabbit Fab (Fab, V domains shown)
VH: QSLEESGGRLVTPGTPLTLTCTASGFSLSSYDMSWVRQAPGKGLEWIGIIYGGSGSTWYASWAKGRFTMSKTSTTVDLKITSPTTEDMATYFCARGRDGGAGGSRNGYSLWGQGTLVTVSS
VL: AYDMTQTPASVEVAVGGTVTIKCQASESIYSGLAWYQQTPGQRPKLLIYAASDLASGVPSRFKGSGSGTEYTLTISGVECADAATYYCQQTWTDGGIDNPFGGGTEVVVKR
Geomean IC50, HEK-Blue TGF-beta reporter gene assay [2]: 1.77 not clear (head says nM) | Geomean IC50, HEK-Blue TGF-beta reporter gene assay [3]: 24.5 not clear (head says nM) | Geomean IC50, HEK-Blue TGF-beta reporter gene assay [4]: 0.3 not clear (head says nM)

The remaining lines, values ahead:

IC50, Collagen I&III deposition, RPTEC and HRF co-culture, N = 1 [1]: 0.0224 µM | IC50, Collagen I&III deposition, RPTEC and HRF co-culture, N = 2 [1]: 0.048 µM | IC50, Collagen V deposition, RPTEC and HRF co-culture, N = 1 [1]: 0.0389 µM | IC50, Collagen V deposition, RPTEC and HRF co-culture, N = 2 [1]: 0.0816 µM | IC50, Fibronectin deposition, RPTEC and HRF co-culture, N = 1 [1]: 0.0326 µM | IC50, Fibronectin deposition, RPTEC and HRF co-culture, N = 2 [1]: 0.0271 µM | IC50 Geo Mean, Collagen I&III deposition, RPTEC and HRF co-culture [1]: 0.0328 µM | IC50 Geo Mean, Collagen V deposition, RPTEC and HRF co-culture [1]: 0.0563 µM | IC50 Geo Mean, Fibronectin deposition, RPTEC and HRF co-culture [1]: 0.0297 µM | IC50 geometric mean, BxPC3 and HEK-Blue TGF-beta co-culture assay [1]: 0.00395 µM
B2: antibody 4856 gL3gH13 Fab (humanised) (Fab)
heavy: EVQLVESGGGLVKPGGSLRLSCAASGFSLSSYDMSWVRQAPGKGLEWIGIIYGGSGSTWYASWAKGRFTISRDSAKNSVYLQMNSLRAEDTAVYYCARGRDAGAGGSRNGYSLWGQGTLVTVSSASTKGPSVFPLAPSSKSTSGGTAALGCLVKDYFPEPVTVSWNSGALTSGVHTFPAVLQSSGLYSLSSVVTVPSSSLGTQTYICNVNHKPSNTKVDKKVEPKSC
light: AYDMTQSPSTLSASVGDRVTITCQASESIYSGLAWYQQKPGKAPKLLIYAASDLASGVPSRFSGSGSGTEYTLTISSLQPDDFATYYCQQTWTDGGIDNPFGGGTKVEIKRTVAAPSVFIFPPSDEQLKSGTASVVCLLNNFYPREAKVQWKVDNALQSGNSQESVTEQDSKDSTYSLSSTLTLSKADYEKHKVYACEVTHQGLSSPVTKSFNRGEC

IC50 geometric mean, BxPC3 and HEK-Blue TGF-beta co-culture assay [1]: 0.00377 µM
B3: antibody 4856 gL3gH29 Fab (humanised) (Fab)
heavy: EVQLVESGGGLVKPGGSLRLSCAASGFSLSSYDMSWVRQAPGKGLEWIGIIYGGSGSTWYASWAKGRFTISRDSAKNSVYLQMNSLRAEDTAVYYCARGRDAGAGGSRDGYSLWGQGTLVTVSSASTKGPSVFPLAPSSKSTSGGTAALGCLVKDYFPEPVTVSWNSGALTSGVHTFPAVLQSSGLYSLSSVVTVPSSSLGTQTYICNVNHKPSNTKVDKKVEPKSC
light: AYDMTQSPSTLSASVGDRVTITCQASESIYSGLAWYQQKPGKAPKLLIYAASDLASGVPSRFSGSGSGTEYTLTISSLQPDDFATYYCQQTWTDGGIDNPFGGGTKVEIKRTVAAPSVFIFPPSDEQLKSGTASVVCLLNNFYPREAKVQWKVDNALQSGNSQESVTEQDSKDSTYSLSSTLTLSKADYEKHKVYACEVTHQGLSSPVTKSFNRGEC

IC50 geometric mean, BxPC3 and HEK-Blue TGF-beta co-culture assay [1]: 0.0091 µM
B5: antibody 4856 gL3gH23 Fab (humanised) (Fab)
heavy: EVQLVESGGGLVKPGGSLRLSCAASGFSLSSYDMSWVRQAPGKGLEWIGIIYGGSGSTWYASWAKGRFTISRDSAKNSVYLQMNSLRAEDTAVYYCARGRDAGAGGSRNAYSLWGQGTLVTVSSASTKGPSVFPLAPSSKSTSGGTAALGCLVKDYFPEPVTVSWNSGALTSGVHTFPAVLQSSGLYSLSSVVTVPSSSLGTQTYICNVNHKPSNTKVDKKVEPKSC
light: AYDMTQSPSTLSASVGDRVTITCQASESIYSGLAWYQQKPGKAPKLLIYAASDLASGVPSRFSGSGSGTEYTLTISSLQPDDFATYYCQQTWTDGGIDNPFGGGTKVEIKRTVAAPSVFIFPPSDEQLKSGTASVVCLLNNFYPREAKVQWKVDNALQSGNSQESVTEQDSKDSTYSLSSTLTLSKADYEKHKVYACEVTHQGLSSPVTKSFNRGEC
